From article doi:10.1101/2023.04.12.536520, “Structural bases for the Charcot–Marie–Tooth disease induced by single amino acid substitutions of myelin protein zero” (bioRxiv, 2023)

B1: ECD-His D32N variant (domain or fragment, human)
chain: MGIVVYTDREVHGAVGSRVTLHCSFWSSEWVSDNISFTWRYQPEGGRDAISIFHYAKGQPYIDEVGTFKERIQWVGDPRWKDGSIVIHNLDYSDNGTFTCDVKNPPDIVGKTSQVTLYVFEKVPTR
notes: two artificial amino acids at the N-terminus; myelin protein zero (MPZ, P0), human, extracellular domain I1 through V121; I1 is residue 30 of the precursor P25189; linker between the ECD and the His6-tag; CMT1B-related substitution at the head-to-head interface; the recombinant protein was non-glycosylated; not shown: His6, C-terminal, kept
B2: ECD-His D46V variant (domain or fragment, human)
chain: MGIVVYTDREVHGAVGSRVTLHCSFWSSEWVSDDISFTWRYQPEGGRVAISIFHYAKGQPYIDEVGTFKERIQWVGDPRWKDGSIVIHNLDYSDNGTFTCDVKNPPDIVGKTSQVTLYVFEKVPTR
notes: two artificial amino acids at the N-terminus; myelin protein zero (MPZ, P0), human, extracellular domain I1 through V121; I1 is residue 30 of the precursor P25189; linker between the ECD and the His6-tag; CMT2-related substitution at the trans interface; not shown: His6, C-terminal, kept
B3: ECD-His E68V variant (domain or fragment, human)
chain: MGIVVYTDREVHGAVGSRVTLHCSFWSSEWVSDDISFTWRYQPEGGRDAISIFHYAKGQPYIDEVGTFKVRIQWVGDPRWKDGSIVIHNLDYSDNGTFTCDVKNPPDIVGKTSQVTLYVFEKVPTR
notes: two artificial amino acids at the N-terminus; myelin protein zero (MPZ, P0), human, extracellular domain I1 through V121; I1 is residue 30 of the precursor P25189; linker between the ECD and the His6-tag; CMT2-related substitution at the cis interface; not shown: His6, C-terminal, kept
B4: ECD-His A47V variant (domain or fragment, human)
chain: MGIVVYTDREVHGAVGSRVTLHCSFWSSEWVSDDISFTWRYQPEGGRDVISIFHYAKGQPYIDEVGTFKERIQWVGDPRWKDGSIVIHNLDYSDNGTFTCDVKNPPDIVGKTSQVTLYVFEKVPTR
notes: as for B2
B5: ECD-His H52R variant (domain or fragment, human)
chain: MGIVVYTDREVHGAVGSRVTLHCSFWSSEWVSDDISFTWRYQPEGGRDAISIFRYAKGQPYIDEVGTFKERIQWVGDPRWKDGSIVIHNLDYSDNGTFTCDVKNPPDIVGKTSQVTLYVFEKVPTR
notes: two artificial amino acids at the N-terminus; myelin protein zero (MPZ, P0), human, extracellular domain I1 through V121; I1 is residue 30 of the precursor P25189; linker between the ECD and the His6-tag; DSS-related substitution at the trans interface; not shown: His6, C-terminal, kept
B6: ECD-His R45A variant (domain or fragment, human)
chain: MGIVVYTDREVHGAVGSRVTLHCSFWSSEWVSDDISFTWRYQPEGGADAISIFHYAKGQPYIDEVGTFKERIQWVGDPRWKDGSIVIHNLDYSDNGTFTCDVKNPPDIVGKTSQVTLYVFEKVPTR
notes: two artificial amino acids at the N-terminus; myelin protein zero (MPZ, P0), human, extracellular domain I1 through V121; I1 is residue 30 of the precursor P25189; linker between the ECD and the His6-tag; trans interface substitution; not shown: His6, C-terminal, kept
B7: ECD-His R38A variant (domain or fragment, human)
chain: MGIVVYTDREVHGAVGSRVTLHCSFWSSEWVSDDISFTWAYQPEGGRDAISIFHYAKGQPYIDEVGTFKERIQWVGDPRWKDGSIVIHNLDYSDNGTFTCDVKNPPDIVGKTSQVTLYVFEKVPTR
notes: as for B6
B8: ECD-His D32G variant (domain or fragment, human)
chain: MGIVVYTDREVHGAVGSRVTLHCSFWSSEWVSDGISFTWRYQPEGGRDAISIFHYAKGQPYIDEVGTFKERIQWVGDPRWKDGSIVIHNLDYSDNGTFTCDVKNPPDIVGKTSQVTLYVFEKVPTR
notes: two artificial amino acids at the N-terminus; myelin protein zero (MPZ, P0), human, extracellular domain I1 through V121; I1 is residue 30 of the precursor P25189; linker between the ECD and the His6-tag; CMT2-related substitution at the head-to-head interface; not shown: His6, C-terminal, kept
B9: human MPZ-ECD without a histidine-tag (ECD) (domain or fragment)
chain: MGIVVYTDREVHGAVGSRVTLHCSFWSSEWVSDDISFTWRYQPEGGRDAISIFHYAKGQPYIDEVGTFKERIQWVGDPRWKDGSIVIHNLDYSDNGTFTCDVKNPPDIVGKTSQVTLYVFEKV
notes: two artificial amino acids at the N-terminus; myelin protein zero (MPZ, P0), human, extracellular domain I1 through V121; I1 is residue 30 of the precursor P25189; Non-glycosylated; also called hMPZ-ECD
B10: human MPZ-ECD with a C-terminal histidine-tag (ECD-His), wild type (domain or fragment)
chain: MGIVVYTDREVHGAVGSRVTLHCSFWSSEWVSDDISFTWRYQPEGGRDAISIFHYAKGQPYIDEVGTFKERIQWVGDPRWKDGSIVIHNLDYSDNGTFTCDVKNPPDIVGKTSQVTLYVFEKVPTR
notes: two artificial amino acids at the N-terminus; myelin protein zero (MPZ, P0), human, extracellular domain I1 through V121; I1 is residue 30 of the precursor P25189; linker between the ECD and the His6-tag; Non-glycosylated; also called hMPZ-ECD-His; WT; not shown: His6, C-terminal, kept

Target: the molecule itself
Experiment: SEC; free ECD or ECD-His variants; HiLoad Superdex 200 16/600 (Fig. 4A-C) or Superdex 200 Increase 10/300 (Fig. 3, Fig. S1); standard buffer (20 mM Tris-HCl pH 7.4, 100 mM NaCl); 4 °C; 8-mer to monomers

Stoichiometry N, 8:
B1
B2
B3
B4
B5
B6
B7
B8
B9

Target: the molecule itself
Experiment: SEC-MALS; ECD-His injected at 52 µM; Superdex 200 Increase 10/300 GL; standard buffer (20 mM Tris-HCl pH 7.4, 100 mM NaCl); room temperature; 8-mer to monomers

Stoichiometry N, 8:
B10
